Changes are numbered by the printed parent chain. In names and notes the source's numbering stands. Values belong to the binder of their own block, whether it stands above or below them.
How the values were obtained:
[1] = target: T1, human CD3 E&D complex protein (Sino Biological Inc., CT026H0323H) (human, UniProt P07766 23-126; P04234 22-105); assay: BLI, antibody on sensor
T1 construct: bought heterodimer; also called human CD3 protein (CT026H0323H)

[2] = target: T2, human CD3E&G complex (Sino Biological Inc., CT041-H0305H) (human, UniProt P07766 23-126; P09693 23-116); assay: BLI, antibody on sensor
T2 construct: bought heterodimer; also called human CD3E&G antigen
T2 sequence (P07766 23-126, chain 1 of 2): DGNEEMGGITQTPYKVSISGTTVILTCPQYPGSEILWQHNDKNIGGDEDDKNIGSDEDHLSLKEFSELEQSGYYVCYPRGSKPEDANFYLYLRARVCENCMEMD
T2 sequence (P09693 23-116, chain 2 of 2): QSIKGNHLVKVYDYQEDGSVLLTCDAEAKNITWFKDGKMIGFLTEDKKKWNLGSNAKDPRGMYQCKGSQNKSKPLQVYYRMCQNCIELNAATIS

T1 sequence (P07766 23-126, chain 1 of 2): as the sequence (P07766 23-126, chain 1 of 2) above
T1 sequence (P04234 22-105, chain 2 of 2): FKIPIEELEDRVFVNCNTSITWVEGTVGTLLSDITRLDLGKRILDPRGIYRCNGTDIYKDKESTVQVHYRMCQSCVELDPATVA

- Kd [1]: 1.35 nM
- koff [1]: 0.0003 s⁻¹
- kon [1]: 223000 M⁻¹ s⁻¹
- Kd [2]: 8.97 nM
- koff [2]: 0.00224 s⁻¹
- kon [2]: 250000 M⁻¹ s⁻¹
B1: hzsp34.78 (antibody, human IgG1, lambda, L234A L235A, V domains shown)
VH: EVQLVESGGGLVQPGGSLKLSCAASGFTFGTYAMNWVRQASGKGLEWVGRIRSKYNNYATYYADSVKDRFTISRDDSKSTLYLQMNSLKTEDTAVYYCARHGNFGQSYVSWFAYWGQGTTVTVSS
VL: QAVVTQEPSLTVSPGGTVTLTCRSSTGAVTTSNYANWVQQKPGQAPRGLIGGTNKRAPGVPARFSGSLLGDKAALTLLGAQPEDEAEYYCALWYSNLWVFGQGTKLTVLG
notes: CDR mutant of hzsp34.24; IgG1 L234A L235A, lambda

- Kd [1]: 0.772 nM
- koff [1]: 0.0002 s⁻¹
- kon [1]: 259000 M⁻¹ s⁻¹
- Kd [2]: 4.82 nM
- koff [2]: 0.00101 s⁻¹
- kon [2]: 210000 M⁻¹ s⁻¹
B6: hzsp34.92 (antibody, human IgG1, lambda, L234A L235A, V domains shown)
VH: B1 VH with G30N, S107R
VL: B1 VL
notes: as for B1

- Kd [1]: 1.88 nM
- koff [1]: 0.000528 s⁻¹
- kon [1]: 280000 M⁻¹ s⁻¹
- Kd [2]: 8.53 nM
- koff [2]: 0.00195 s⁻¹
- kon [2]: 228000 M⁻¹ s⁻¹
B7: hzsp34.91 (antibody, human IgG1, lambda, L234A L235A, V domains shown)
VH: B1 VH with G30N, Q106G
VL: B1 VL
notes: as for B1

- Kd [1]: 0.951 nM
- koff [1]: 0.0002 s⁻¹
- kon [1]: 210000 M⁻¹ s⁻¹
- Kd [2]: 8.49 nM
- koff [2]: 0.00188 s⁻¹
- kon [2]: 222000 M⁻¹ s⁻¹
B9: hzsp34.110 (antibody, human IgG1, lambda, L234A L235A, V domains shown)
VH: B1 VH with G30N
VL: B1 VL with N96G
notes: as for B1

- Kd [1]: 0.88 nM
- koff [1]: 0.000152 s⁻¹
- kon [1]: 173000 M⁻¹ s⁻¹
- Kd [2]: 6.06 nM
- koff [2]: 0.000997 s⁻¹
- kon [2]: 165000 M⁻¹ s⁻¹
B10: hzsp34.87 (antibody, human IgG1, lambda, L234A L235A, V domains shown)
VH: B1 VH with G30N, G102Y
VL: B1 VL
notes: as for B1

- Kd [1]: 7.69 nM
- koff [1]: 0.00143 s⁻¹
- kon [1]: 186000 M⁻¹ s⁻¹
- Kd [2]: 11.1 nM
- koff [2]: 0.00157 s⁻¹
- kon [2]: 142000 M⁻¹ s⁻¹
B11: hzsp34.81 (antibody, human IgG1, lambda, L234A L235A, V domains shown)
VH: B1 VH with G30N, R52S
VL: B1 VL
notes: as for B1

- Kd [1]: 0.965 nM
- koff [1]: 0.0002 s⁻¹
- kon [1]: 207000 M⁻¹ s⁻¹
- Kd [2]: 7.19 nM
- koff [2]: 0.00146 s⁻¹
- kon [2]: 203000 M⁻¹ s⁻¹
B13: hzsp34.108 (antibody, human IgG1, lambda, L234A L235A, V domains shown)
VH: B1 VH with G30N
VL: B1 VL with Y94A
notes: as for B1

- Kd [1]: 1.94 nM
- koff [1]: 0.000454 s⁻¹
- kon [1]: 235000 M⁻¹ s⁻¹
- Kd [2]: 9.5 nM
- koff [2]: 0.00191 s⁻¹
- kon [2]: 201000 M⁻¹ s⁻¹
B14: hzsp34.111 (antibody, human IgG1, lambda, L234A L235A, V domains shown)
VH: B1 VH with G30N
VL: B1 VL with T30G, T31G
notes: as for B1

- Kd [1]: 0.928 nM
- koff [1]: 0.0002 s⁻¹
- kon [1]: 216000 M⁻¹ s⁻¹
- Kd [2]: 3.6 nM
- koff [2]: 0.000791 s⁻¹
- kon [2]: 220000 M⁻¹ s⁻¹
B15: hzsp34.83 (antibody, human IgG1, lambda, L234A L235A, V domains shown)
VH: B1 VH with G30N, Y55A
VL: B1 VL
notes: as for B1

- Kd [1]: 9.15 nM
- koff [1]: 0.00184 s⁻¹
- kon [1]: 201000 M⁻¹ s⁻¹
- binding result [2]: no binding
B16: hzsp34.98 (antibody, human IgG1, lambda, L234A L235A, V domains shown)
VH: B1 VH with G30N, G102Y, N103G
VL: B1 VL
notes: as for B1

- Kd [1]: 0.976 nM
- koff [1]: 0.00026 s⁻¹
- kon [1]: 266000 M⁻¹ s⁻¹
- Kd [2]: 3.42 nM
- koff [2]: 0.000836 s⁻¹
- kon [2]: 245000 M⁻¹ s⁻¹
B19: hzsp34.93 (antibody, human IgG1, lambda, L234A L235A, V domains shown)
VH: B1 VH with G30N, Y108A
VL: B1 VL
notes: as for B1

- Kd [1]: 0.507 nM
- koff [1]: 0.000118 s⁻¹
- kon [1]: 233000 M⁻¹ s⁻¹
- Kd [2]: 6.36 nM
- koff [2]: 0.00154 s⁻¹
- kon [2]: 242000 M⁻¹ s⁻¹
B21: hzsp34.79 (antibody, human IgG1, lambda, L234A L235A, V domains shown)
VH: B1 VH with G30N, T31G
VL: B1 VL
notes: as for B1

- Kd [1]: 1.15 nM
- koff [1]: 0.000258 s⁻¹
- kon [1]: 225000 M⁻¹ s⁻¹
- Kd [2]: 9.02 nM
- koff [2]: 0.0021 s⁻¹
- kon [2]: 233000 M⁻¹ s⁻¹
B24: hzsp34.109 (antibody, human IgG1, lambda, L234A L235A, V domains shown)
VH: B1 VH with G30N
VL: B1 VL with S95R
notes: as for B1

- Kd [1]: 6.62 nM
- koff [1]: 0.00094 s⁻¹
- kon [1]: 142000 M⁻¹ s⁻¹
- Kd [2]: 13.8 nM
- koff [2]: 0.00282 s⁻¹
- kon [2]: 205000 M⁻¹ s⁻¹
B27: hzsp34.89 (antibody, human IgG1, lambda, L234A L235A, V domains shown)
VH: B1 VH with G30N, F104A
VL: B1 VL
notes: as for B1

- Kd [1]: 1.69 nM
- koff [1]: 0.000423 s⁻¹
- kon [1]: 250000 M⁻¹ s⁻¹
- Kd [2]: 8.52 nM
- koff [2]: 0.0019 s⁻¹
- kon [2]: 222000 M⁻¹ s⁻¹
B28: hzsp34.102 (antibody, human IgG1, lambda, L234A L235A, V domains shown)
VH: B1 VH with G30N
VL: B1 VL with R23G
notes: as for B1

- Kd [1]: 0.812 nM
- koff [1]: 0.0002 s⁻¹
- kon [1]: 246000 M⁻¹ s⁻¹
- Kd [2]: 4.89 nM
- koff [2]: 0.00114 s⁻¹
- kon [2]: 233000 M⁻¹ s⁻¹
B29: hzsp34.84 (antibody, human IgG1, lambda, L234A L235A, V domains shown)
VH: B1 VH with G30N, N56G
VL: B1 VL
notes: as for B1

More lines, now with the values behind:

B2: hzsp34.99 (antibody, human IgG1, lambda, L234A L235A, V domains shown)
VH: B1 VH with G30N, F104A, G105Y
VL: B1 VL
notes: as for B1
- Kd [1]: 9.63 nM
- koff [1]: 0.0011 s⁻¹
- kon [1]: 114000 M⁻¹ s⁻¹
- binding result [2]: no binding

B3: hzsp34.80 (antibody, human IgG1, lambda, L234A L235A, V domains shown)
VH: B1 VH with G30N, Y32A
VL: B1 VL
notes: as for B1
- Kd [1]: 6.55 nM
- koff [1]: 0.00147 s⁻¹
- kon [1]: 225000 M⁻¹ s⁻¹
- Kd [2]: 15.4 nM
- koff [2]: 0.00213 s⁻¹
- kon [2]: 138000 M⁻¹ s⁻¹

B4: hzsp34.103 (antibody, human IgG1, lambda, L234A L235A, V domains shown)
VH: B1 VH with G30N
VL: B1 VL with T30G
notes: as for B1
- Kd [1]: 1.34 nM
- koff [1]: 0.000325 s⁻¹
- kon [1]: 243000 M⁻¹ s⁻¹
- Kd [2]: 7.57 nM
- koff [2]: 0.00191 s⁻¹
- kon [2]: 253000 M⁻¹ s⁻¹

B5: hzsp34.100 (antibody, human IgG1, lambda, L234A L235A, V domains shown)
VH: B1 VH with G30N, Q106G, S107R
VL: B1 VL
notes: as for B1
- Kd [1]: 1.13 nM
- koff [1]: 0.000276 s⁻¹
- kon [1]: 243000 M⁻¹ s⁻¹
- Kd [2]: 8.33 nM
- koff [2]: 0.00171 s⁻¹
- kon [2]: 205000 M⁻¹ s⁻¹

B8: hzsp34.106 (antibody, human IgG1, lambda, L234A L235A, V domains shown)
VH: B1 VH with G30N
VL: B1 VL with N33G
notes: as for B1
- Kd [1]: 1.54 nM
- koff [1]: 0.000365 s⁻¹
- kon [1]: 236000 M⁻¹ s⁻¹
- Kd [2]: 10.3 nM
- koff [2]: 0.00237 s⁻¹
- kon [2]: 230000 M⁻¹ s⁻¹

B12: hzsp34.94 (antibody, human IgG1, lambda, L234A L235A, V domains shown)
VH: B1 VH with G30N, V109A
VL: B1 VL
notes: as for B1
- Kd [1]: 0.977 nM
- koff [1]: 0.0002 s⁻¹
- kon [1]: 205000 M⁻¹ s⁻¹
- Kd [2]: 4.63 nM
- koff [2]: 0.000821 s⁻¹
- kon [2]: 177000 M⁻¹ s⁻¹

B17: hzsp34.85 (antibody, human IgG1, lambda, L234A L235A, V domains shown)
VH: B1 VH with G30N, N57G
VL: B1 VL
notes: as for B1
- Kd [1]: 1.32 nM
- koff [1]: 0.000304 s⁻¹
- kon [1]: 230000 M⁻¹ s⁻¹
- Kd [2]: 8.08 nM
- koff [2]: 0.00201 s⁻¹
- kon [2]: 249000 M⁻¹ s⁻¹

B18: hzsp34.105 (antibody, human IgG1, lambda, L234A L235A, V domains shown)
VH: B1 VH with G30N
VL: B1 VL with S32R
notes: as for B1
- Kd [1]: 1.3 nM
- koff [1]: 0.000307 s⁻¹
- kon [1]: 235000 M⁻¹ s⁻¹
- Kd [2]: 10.6 nM
- koff [2]: 0.0021 s⁻¹
- kon [2]: 199000 M⁻¹ s⁻¹

B20: hzsp34.101 (antibody, human IgG1, lambda, L234A L235A, V domains shown)
VH: B1 VH with G30N, Y108A, V109A
VL: B1 VL
notes: as for B1
- Kd [1]: 3.77 nM
- koff [1]: 0.00082 s⁻¹
- kon [1]: 217000 M⁻¹ s⁻¹
- Kd [2]: 4.3 nM
- koff [2]: 0.000636 s⁻¹
- kon [2]: 148000 M⁻¹ s⁻¹

B22: hzsp34.86 (antibody, human IgG1, lambda, L234A L235A, V domains shown)
VH: B1 VH with G30N, H101A
VL: B1 VL
notes: as for B1
- Kd [1]: 1.39 nM
- koff [1]: 0.000354 s⁻¹
- kon [1]: 255000 M⁻¹ s⁻¹
- Kd [2]: 6.61 nM
- koff [2]: 0.00144 s⁻¹
- kon [2]: 219000 M⁻¹ s⁻¹

B23: hzsp34.104 (antibody, human IgG1, lambda, L234A L235A, V domains shown)
VH: B1 VH with G30N
VL: B1 VL with T31G
notes: as for B1
- Kd [1]: 1.93 nM
- koff [1]: 0.000542 s⁻¹
- kon [1]: 281000 M⁻¹ s⁻¹
- Kd [2]: 8.54 nM
- koff [2]: 0.00198 s⁻¹
- kon [2]: 231000 M⁻¹ s⁻¹

B25: hzsp34.82 (antibody, human IgG1, lambda, L234A L235A, V domains shown)
VH: B1 VH with G30N, S53L
VL: B1 VL
notes: as for B1
- Kd [1]: 10.3 nM
- koff [1]: 0.00168 s⁻¹
- kon [1]: 163000 M⁻¹ s⁻¹
- Kd [2]: 12 nM
- koff [2]: 0.00191 s⁻¹
- kon [2]: 159000 M⁻¹ s⁻¹

B26: hzsp34.107 (antibody, human IgG1, lambda, L234A L235A, V domains shown)
VH: B1 VH with G30N
VL: B1 VL with W93A
notes: as for B1
- Kd [1]: 8.44 nM
- koff [1]: 0.00141 s⁻¹
- kon [1]: 167000 M⁻¹ s⁻¹
- Kd [2]: 59.8 nM
- koff [2]: 0.00446 s⁻¹
- kon [2]: 74600 M⁻¹ s⁻¹

B30: hzsp34.88 (antibody, human IgG1, lambda, L234A L235A, V domains shown)
VH: B1 VH with G30N, N103G
VL: B1 VL
notes: as for B1
- Kd [1]: 4.55 nM
- koff [1]: 0.000797 s⁻¹
- kon [1]: 175000 M⁻¹ s⁻¹
- Kd [2]: 15.8 nM
- koff [2]: 0.00205 s⁻¹
- kon [2]: 130000 M⁻¹ s⁻¹
